According to FireProtDB (doi:10.1093/protein/15.10.817):
Several values for one entry are separate records, joined by “and”; a condition that tells them apart may be missing. Equal entries are not always repeated.

B1: High mobility group protein B1, P63159 (parent)
chain: MGKGDPKKPRGKMSSYAFFVQTCREEHKKKHPDASVNFSEFSKKCSERWKTMSAKEKGKFEDMAKADKARYEREMKTYIPPKGETKKKFKDPNAPKRPPSAFFLFCSEYRPKIKGEHPGLSIGDVAKKLGEMWNNTAADDKQPYEKKAAKLKEKYEKDIAAYRAKGKPDAAKKGVVKAEKSKKKKEEEDDEEDEEDEEEEEEEEDEDEEEDDDDE

Variants of: B1
Settings: Rattus norvegicus, pH 7, Thermal, CD, HEPES 10 mM, structure 1HME, whole UniProt chain shown; for ddG of mutation (higher = less stable) / unfolding free energy: 20 °C

In the case of G123H, the “ddG of mutation (higher = less stable)” value (NiSO4 1 mM) is reported as -0.47 kcal/mol, the unfolding free energy (NiSO4 1 mM) is reported as 3.17 kcal/mol and the “ddG of mutation (higher = less stable)” value is reported as 0.34 kcal/mol. The unfolding free energy was 2.36 kcal/mol, the Tm (NiSO4 1 mM) was 44.9 °C and the “change of melting temperature, mutant - wild type (higher = more stable)” value (“change of melting temperature, mutant” for short) (NiSO4 1 mM) was 4.3 °C. The “unfolding enthalpy (van 't Hoff)” value (NiSO4 1 mM) was 36.8 kcal/mol.

In the case of S121H, the “ddG of mutation (higher = less stable)” value (NiSO4 1 mM) is reported as 1.5 kcal/mol, the unfolding free energy (NiSO4 1 mM) is reported as 1.2 kcal/mol and the “ddG of mutation (higher = less stable)” value is reported as 1.85 kcal/mol. For the same variant, the unfolding free energy was 0.85 kcal/mol, the Tm (NiSO4 1 mM) was 34.4 °C and the “change of melting temperature, mutant” value (NiSO4 1 mM) was -6.2 °C. The “unfolding enthalpy (van 't Hoff)” value (NiSO4 1 mM) was 31.4 kcal/mol, the Tm was 30.4 °C and the “change of melting temperature, mutant” value was -10.2 °C. The “unfolding enthalpy (van 't Hoff)” value was 28.2 kcal/mol.

For I122H, the “ddG of mutation (higher = less stable)” value (NiSO4 1 mM) was 0 kcal/mol, the unfolding free energy (NiSO4 1 mM) was 2.7 kcal/mol and the “ddG of mutation (higher = less stable)” value was 1.23 kcal/mol. The unfolding free energy was 1.74 kcal/mol, the Tm (NiSO4 1 mM) was 41.9 °C and the “change of melting temperature, mutant” value (NiSO4 1 mM) was 1.3 °C. The “unfolding enthalpy (van 't Hoff)” value (NiSO4 1 mM) was 34.2 kcal/mol, the Tm was 36.2 °C and the “change of melting temperature, mutant” value was -4.4 °C. For the same variant, the “unfolding enthalpy (van 't Hoff)” value was 33.6 kcal/mol.

With D139H the “ddG of mutation (higher = less stable)” value (NiSO4 1 mM) was -0.97 kcal/mol, the unfolding free energy (NiSO4 1 mM) was 3.67 kcal/mol and the “ddG of mutation (higher = less stable)” value was -0.27 kcal/mol. For the same variant, the unfolding free energy was 2.97 kcal/mol, the Tm (NiSO4 1 mM) was 46.8 °C and the “change of melting temperature, mutant” value (NiSO4 1 mM) was 6.2 °C. The “unfolding enthalpy (van 't Hoff)” value (NiSO4 1 mM) was 41 kcal/mol, the Tm was 41.1 °C and the “change of melting temperature, mutant” value was 0.5 °C. The “unfolding enthalpy (van 't Hoff)” value was 38.3 kcal/mol.

For N135H D139H, the unfolding free energy (NiSO4 1 mM) was 1.74 kcal/mol and 4.04 kcal/mol and 4.32 kcal/mol, the unfolding free energy was 1.69 kcal/mol and 2.42 kcal/mol and 1.67 kcal/mol and the Tm was 39 °C and 36.3 °C. The “unfolding enthalpy (van 't Hoff)” value was 35.8 kcal/mol and 32.3 kcal/mol.

In the case of N135H D140H, the unfolding free energy (NiSO4 1 mM) is reported as 1.8 kcal/mol and 2.46 kcal/mol, the “ddG of mutation (higher = less stable)” value is reported as 1.3 kcal/mol and 1.2 kcal/mol and the unfolding free energy is reported as 1.4 kcal/mol and 1.5 kcal/mol. For the same variant, the Tm was 34.3 °C and 35.3 °C, the “change of melting temperature, mutant” value was -6.3 °C and -5.3 °C and the “unfolding enthalpy (van 't Hoff)” value was 33.1 kcal/mol and 31.5 kcal/mol.

For D140H, the “ddG of mutation (higher = less stable)” value (NiSO4 1 mM) was -0.95 kcal/mol, the unfolding free energy (NiSO4 1 mM) was 3.65 kcal/mol and the Tm (NiSO4 1 mM) was 46.8 °C. For the same variant, the “change of melting temperature, mutant” value (NiSO4 1 mM) was 6.2 °C, the “unfolding enthalpy (van 't Hoff)” value (NiSO4 1 mM) was 36.8 kcal/mol and the Tm was 38.2 °C. For the same variant, the “change of melting temperature, mutant” value was -2.4 °C and the “unfolding enthalpy (van 't Hoff)” value was 33 kcal/mol.
